Laboratory results reported in patent US20090123479A1 (published 2009).

T1: recombinant human IL-23 (human, UniProt Q9NPF7 20-189; P29460 23-328)
T1 construct: also called hIL-23
T1 sequence 1: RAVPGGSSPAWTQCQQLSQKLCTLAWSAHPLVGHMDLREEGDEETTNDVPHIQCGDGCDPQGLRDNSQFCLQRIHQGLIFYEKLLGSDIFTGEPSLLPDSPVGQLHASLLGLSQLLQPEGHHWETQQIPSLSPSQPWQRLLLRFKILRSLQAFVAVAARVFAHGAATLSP
T1 sequence 2: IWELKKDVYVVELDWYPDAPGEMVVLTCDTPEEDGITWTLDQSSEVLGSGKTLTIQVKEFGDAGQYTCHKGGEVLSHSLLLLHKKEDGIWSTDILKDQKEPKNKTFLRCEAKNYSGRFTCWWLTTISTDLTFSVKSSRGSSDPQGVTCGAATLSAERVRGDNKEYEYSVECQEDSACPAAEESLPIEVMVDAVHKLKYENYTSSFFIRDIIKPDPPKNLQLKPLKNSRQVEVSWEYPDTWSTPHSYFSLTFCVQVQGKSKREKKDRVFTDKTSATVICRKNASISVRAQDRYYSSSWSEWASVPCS


How the values were obtained:
recombinant human IL-23 [1] = molecular target: T1, recombinant human IL-23; assay: SPR (Biacore T100), purified antibody captured on anti-human IgG, IL-23 analyte, 1:1 model
Description: (§1) Biacore analysis was carried out using a capture surface on a CM5 chip. Anti-human IgG (BR-1008-39) was used as the capturing agent. Anti-human IgG was coupled to a CM5 biosensor chip by primary amine coupling. Humanized antibody was captured on this immobilised surface and defined concentrations of IL-23 were passed over this captured surface. An injection of buffer over the captured antibody surface was used for double-referencing. […] T100 Biacore machine was used to generate the data; all runs were carried out at 25° C. using HBS EP. Data was analysed using the software inherent to the machine and fitted to the 1:1 model of binding. Tables 7 and 8 detail the IL-23 binding analysis carried out on the 8C92H6.HC1LC1 chimera and selected humanized variants in two separate experiments. Data presented in Tables 7 and 8 are from purified antibody samples. The data shown for the humanized variants is representative of a number of runs. The chimeric mAb (8C9H6.HC1LC1) was only run once in each experiment, so data shown for this mAb is from that one run.

recombinant human IL-23 [2] = molecular target: T1, recombinant human IL-23; assay: IL-23/IL-23R inhibition ELISA (optimised protocol, OD450): plate coated with human IL23R Fc chimera, antibody pre-incubated with constant human IL-23, bound IL-23 detected with biotinylated anti-human IL-12; purified antibody
Description: Optimised protocol: Plates were coated with human IL23R Fc chimera at […] (phosphate buffered saline). 50 μl/well of this mixture was incubated overnight at 4° C. The plates were then washed three times with Phosphate Buffered Saline with 0.05% Tween 20 (PBST). Plates were blocked with 4% skim milk powder (Fluka BioChemika #70166) PBST 100 μl/well for a minimum of 1 hour at room temperature. The plates were then washed three times with Phosphate Buffered Saline+0.05% Tween 20 (PBST). Various concentrations of antibody were incubated in a separate plate with a constant concentration of IL-23 for 1 hour at room temperature. 50 ul of each mixture were transferred to the assay plate and incubated at RT for 1 hr. They were then washed three times with Phosphate Buffered Saline+0.05% Tween 20 (PBST). Bound IL23 was detected by anti human 1L12 Biotin labelled Ab (R&D systems BAF219) diluted to 100 ng/ml in 4% skim milk powder (Fluka BioChemika #70166) PBST. 50 μl/well of the biotinylated antibody was added and incubated at RT for 1 hour. The plates were then washed three times with Phosphate Buffered Saline+0.05% Tween 20 (PBST). SA HRP (GE healthcare RPN4401) was diluted 1/4000 in 4% skim m ilk powder (Fluka BioChemika #70166) PBS, 50 μl/well was added to the plates. The plates were then washed three times with Phosphate Buffered Saline+0.05% Tween 20 (PBST). 50 ul/well of TMB was added to the plates and incubated at RT for 15 min. 25 μl/well of 3 MH₂SO₄ was added to the wells already containing TMB. The plate was read at OD450 nm using the SOftmaxPRO versamax plate reader.

recombinant human IL-23 [3] = molecular target: T1, recombinant human IL-23; assay: SPR (Biacore T100), tissue culture supernatant antibody captured on anti-human IgG, IL-23 analyte
Description: as §1, with “Data presented in Tables 7 and 8 are from purified antibody samples.” left out

| Binder | Kd (recombinant human IL-23 [1]) [nM] | koff (recombinant human IL-23 [1]) [s⁻¹] | kon (recombinant human IL-23 [1]) [M⁻¹ s⁻¹] | IC50 (read off the curve) (recombinant human IL-23 [2]) [nM] | Kd (recombinant human IL-23 [3]) [nM] | koff (recombinant human IL-23 [3]) [s⁻¹] | kon (recombinant human IL-23 [3]) [M⁻¹ s⁻¹] |
| --- | --- | --- | --- | --- | --- | --- | --- |
| A5M0 (antibody, human IgG1, kappa, V domains shown, Full length chains) VH: QVQLVQSGAEVKKPGSSVKVSCKASGYTFTSYGITWVRQAPGQGLEWMGENYPRSGNTYYNEKFKGRVTITADKSTSTAYMELSSLRSEDTAVYYCARAEFISTVVAPYYYALDYWGQGTLVTVSS VL: DIVMTQSPDSLAVSLGERATINCKASKKVTIFGSISALHWYQQKPGQPPKLIYNGAKLESGVPDRFSGSGSGTDFTLTISSLQAEDVAVYYCLQNKEVPYTFGGGTKVEIKR | 0.103 | 0.000171 | 1.65e+06 | ~0.2 | – | – | – |
| A7M3 (antibody, human IgG1, kappa, V domains shown, Full length chains) VH: QVQLVQSGAEVKKPGSSVKVSCKASGYTFTSYGITWVRQAPGQGLEWMGEDYPRSGNTYYNEKFKGRVTITADKSTSTAYMELSSLRSEDTAVYYCARSEFISTVVAPYYYALDYWGQGTLVTVSS VL: DIVMTQSPDSLAVSLGERATINCKASKKVTIFGSTSALHWYQQKPGQPPKLIYNGAKLESGVPDRFSGSGSGTDFTLTISSLQAEDVAVYYCLQNKEVPYTFGGGTKVEIKR | 0.144 | 0.000145 | 1.01e+06 | ~0.2 | – | – | – |
| A6M0 (antibody, human IgG1, kappa, V domains shown, Full length chains) VH: QVQLVQSGAEVKKPGSSVKVSCKASGYTFTSYGITWVRQAPGQGLEWMGENYPRSGNTYYNEKFKGRVTITADKSTSTAYMELSSLRSEDTAVYYCARVEFISTVVAPYYYALDYWGQGTLVTVSS VL: DIVMTQSPDSLAVSLGERATINCKASKKVTIFGSISALHWYQQKPGQPPKLIYNGAKLESGVPDRFSGSGSGTDFTLTISSLQAEDVAVYYCLQNKEVPYTFGGGTKVEIKR | 0.101 | 0.000298 | 2.95e+06 | ~0.2 | – | – | – |

The remaining lines, values ahead:

| Kd (recombinant human IL-23 [1]) [nM] | koff (recombinant human IL-23 [1]) [s⁻¹] | kon (recombinant human IL-23 [1]) [M⁻¹ s⁻¹] | IC50 (read off the curve) (recombinant human IL-23 [2]) [nM] | Kd (recombinant human IL-23 [3]) [nM] | koff (recombinant human IL-23 [3]) [s⁻¹] | kon (recombinant human IL-23 [3]) [M⁻¹ s⁻¹] | Binder |
| --- | --- | --- | --- | --- | --- | --- | --- |
| – | – | – | – | 0.0553 | 0.000163 | 2.94e+06 | A12M4 (antibody, V domains shown) VH: QVQLVQSGAEVKKPGSSVKVSCKASGYTFASYGITWVRQAPGQGLEWMGENYPRSGNTYYNEKFKGRVTITADKSTSTAYMELSSLRSEDTAMYYCARVEFISTVVAPYYYALDYWGQGTLVTVSS VL: DIVMTQSPDSLAVSLGERATINCKASKKVTIFGSTSALHWYQQKPGQPPKLIYNGAKPESGVPDRFSGSGSGTDFTLTISSLQAEDVAVYYCLQNKEVPYTFGGGTKVEIK |
| 0.065 | 0.000171 | 2.64e+06 | ~0.1 | – | – | – | A9M3 (antibody, V domains shown) VH: QVQLVQSGAEVKKPGSSVKVSCKASGYTFTSYGITWVRQAPGQGLEWMGEDYPRSGNTYYNEKFKGRVTITADKSTSTAYMELSSLRSEDTAVYYCARVEFISTVVAPYYYALDYWGQGTLVTVSS VL: DIVMTQSPDSLAVSLGERATINCKASKKVTIFGSTSALHWYQQKPGQPPKLIYNGAKLESGVPDRFSGSGSGTDFTLTISSLQAEDVAVYYCLQNKEVPYTFGGGTKVEIK |
| – | – | – | – | 0.0483 | 0.000151 | 3.12e+06 | A12.5M4 (antibody, V domains shown) VH: QVQLVQSGAEVKKPGSSVKVSCKASGYTFASYGITWVRQAPGQGLEWMGENYPRSGNTYYNEKFKGRVTITADKSTSTAYMELSSLRSEDTAVYYCARVEFISTVVAPYYYALDYWGQGTLVTVSS VL: DIVMTQSPDSLAVSLGERATINCKASKKVTIFGSTSALHWYQQKPGQPPKLIYNGAKPESGVPDRFSGSGSGTDFTLTISSLQAEDVAVYYCLQNKEVPYTFGGGTKVEIK |
| 0.08 | 0.000135 | 1.67e+06 | ~0.2 | – | – | – | A8M3 (antibody, V domains shown) VH: QVQLVQSGAEVKKPGSSVKVSCKASGYTFTSYGITWVRQAPGQGLEWMGEDYPRSGNTYYNEKFKGRVTITADKSTSTAYMELSSLRSEDTAVYYCARAEFISTVVAPYYYALDYWGQGTLVTVSS VL: DIVMTQSPDSLAVSLGERATINCKASKKVTIFGSTSALHWYQQKPGQPPKLIYNGAKLESGVPDRFSGSGSGTDFTLTISSLQAEDVAVYYCLQNKEVPYTFGGGTKVEIK |
| – | – | – | – | 0.0794 | 0.000202 | 2.54e+06 | A12M3 (antibody, V domains shown) VH: QVQLVQSGAEVKKPGSSVKVSCKASGYTFASYGITWVRQAPGQGLEWMGENYPRSGNTYYNEKFKGRVTITADKSTSTAYMELSSLRSEDTAMYYCARVEFISTVVAPYYYALDYWGQGTLVTVSS VL: DIVMTQSPDSLAVSLGERATINCKASKKVTIFGSTSALHWYQQKPGQPPKLIYNGAKLESGVPDRFSGSGSGTDFTLTISSLQAEDVAVYYCLQNKEVPYTFGGGTKVEIK |
